What was measured:
[1] = target: Staphylococcus aureus single-stranded DNA-binding protein SsbA (S. aureus subsp. aureus ED98); experiment: SEC; purified SaSsbA (2 mg/mL) on Superdex 200 prep grade in Buffer B (20 mM HEPES, 100 mM NaCl, pH 7.0), calibrated with proteins of known molecular weight
[2] = target: Staphylococcus aureus PriA helicase (S. aureus); experiment: SPR; SaPriA immobilised on CM5 chip, Biacore T200, 293 K, 40 mM Tris, 200 mM NaCl, 0.05% Tween-20, pH 8.0; analyte injected 120 s at 30 uL/min; 1:1 (Langmuir) model
[3] = target: SaSsbA (Staphylococcus aureus subsp. aureus ED98, UniProt A0A0D1JHQ1 1-167); experiment: EMSA; 100 mM NaCl; EMSA: 20 mM Tris-HCl pH 8.0, 100 mM NaCl (or 0.4 M NaCl), 1.7 nM DNA, 25 C, 30 min; native 8% PAGE in TBE at 4 C; conditions: protein: recombinant; chain copies: 4; label: 32P (5' end, T4 PNK); single strand

Work on “Staphylococcus aureus single-stranded DNA-binding protein SsbA (natural protein)” yielded a stoichiometry N [1] of 4 and a Kd [2] of 46 nM.

For TTTTTTTTTTTTTTTTTTTT (ssDNA) [dT20], the “apparent K (half saturation)” value [3] was 292 ± 28 nM.

In the case of TTTTTTTTTTTTTTTTTTTTTTTTTTTTTTTTTTTTTTTT (ssDNA) [dT40], the “apparent K (half saturation)” value [3] is reported as 90 ± 5 nM.

In the case of TTTTTTTTTTTTTTTTTTTTTTTTTTTTTT (ssDNA) [dT30], the “apparent K (half saturation)” value [3] is reported as 186 ± 20 nM.

From publication PMC5531588, “Staphylococcus aureus single-stranded DNA-binding protein SsbA can bind but cannot stimulate PriA helicase”
